Experiment [1] deals with human C5a receptor (C5aR) on intact human polymorphonuclear leukocytes (PMNs) (human) (UniProt P21730). Description: cell-based or functional assay.
Experiment [2] shares this target. As to the kind of experiment: 50% inhibition of [125I]C5a binding to intact PMNs.
Experiment [3] concerns the target T1, human C5a receptor (C5aR) on intact human polymorphonuclear leukocytes (PMNs) (human, UniProt P21730 1-350).
T1 sequence (looked up): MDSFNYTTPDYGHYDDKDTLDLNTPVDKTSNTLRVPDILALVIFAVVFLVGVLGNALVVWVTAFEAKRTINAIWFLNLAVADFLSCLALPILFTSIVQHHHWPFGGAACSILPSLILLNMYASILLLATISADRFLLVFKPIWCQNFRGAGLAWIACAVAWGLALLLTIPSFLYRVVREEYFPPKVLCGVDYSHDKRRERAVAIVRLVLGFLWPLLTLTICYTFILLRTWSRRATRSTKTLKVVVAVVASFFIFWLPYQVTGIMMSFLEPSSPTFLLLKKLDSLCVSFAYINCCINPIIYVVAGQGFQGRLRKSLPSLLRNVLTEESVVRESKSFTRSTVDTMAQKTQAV
Description: cell-based or functional assay.

Experiment [4] deals with T1, human C5a receptor (C5aR) on intact …. As to the kind of experiment: cell-based or functional assay. The source holds these as a separate data set.
Experiment [5] has the same target. Description: competition with 125I-C5a for binding to intact human PMNs, 4 °C.
Experiment [6] concerns the target human C5a receptor (C5aR) on intact human polymorphonuclear leukocytes (PMNs) (human) (UniProt P21730). Description: 50% inhibition of [125I]C5a binding to intact PMNs; column head prints 'IC50 (M)', the pD2 shows µM.
Experiment [7] has as its target T1, human C5a receptor (C5aR) on intact …. The experiment is described as above.
For experiment [8] the target is unchanged. As to the kind of experiment: unlabelled C5a competing with 125I-C5a for binding to intact human PMNs, 4 °C.

Bridges are numbered along the chain shown (N, C = ends). Where no end group is shown, it is not given here. [ ]: non-standard residue; d: D form. NMeF = CN[C@@H](Cc1ccccc1)C(=O)O; dCha = N[C@H](CC1CCCCC1)C(=O)O Bounds are passed on as bounds.

These results are taken from patent US20090203760A1 (UNIVERSITY OF QUEENSLAND, published 2009).

In the case of F-[KPdChaWR] (peptide), in experiment [1], the IC50: 50% inhibition in the ability of C5a (100 nM) to cause the release of MPO from PMNs turned out to be 0.2 µM and the pD2: 50% inhibition in the ability of C5a (100 nM) to cause the release of MPO from PMNs came out at 6.69. Also, in experiment [2], the 50% inhibitory concentration (IC50) (usually the concentration at which inhibition is half-maximal) came to 0.3 µM and the pD2 turned out to be 6.5.

As to AcF-[KPdChaWr] (peptide), the pD2: 50% inhibition in the ability of C5a (100 nM) to cause the release of MPO from PMNs in experiment [1] amounted to 7.07.

In experiment [1], AcF-[OPdChaWr] (peptide) registered an in vitro activity as a C5a antagonist in PMNs, against 17 of 100 fold and a pD2: 50% inhibition in the ability of C5a (100 nM) to cause the release of MPO from PMNs of 7.3. Besides, in experiment [2], the pD2 turned out to be 4.6.

In experiment [1], F-[KPdChaWr] (peptide) showed an IC50: 50% inhibition in the ability of C5a (100 nM) to cause the release of MPO from PMNs of 2.8 µM and a pD2: 50% inhibition in the ability of C5a (100 nM) to cause the release of MPO from PMNs of 5.55. In experiment [2], this molecule came in with an IC50 of 8.1 µM and a pD2 of 5.09.

In experiment [1], F-[OPdChaWr] (peptide) showed an IC50: 50% inhibition in the ability of C5a (100 nM) to cause the release of MPO from PMNs of 1.6 µM and a pD2: 50% inhibition in the ability of C5a (100 nM) to cause the release of MPO from PMNs of 5.79. In experiment [2], this molecule gave an IC50 of 3.1 µM and a pD2 of 5.51.

In experiment [1], F-[OPdChaWR] (peptide) showed an IC50: 50% inhibition in the ability of C5a (100 nM) to cause the release of MPO from PMNs of 0.04 µM and a pD2: 50% inhibition in the ability of C5a (100 nM) to cause the release of MPO from PMNs of 7.41. For the same molecule, in experiment [2], the IC50 came to 0.06 µM and the pD2 turned out to be 7.21.

B1: MeFKP(dCha)Wr-CONH2 (peptide)
peptide: [NMeF]KP[dCha]W[dR]-NH2
notes: Linear; C-terminal amide of 7; also called ID NO:8
In the case of B1, the “antagonist activity against 7 (myeloperoxidase release from human PMNs)” value in experiment [3] is roughly 5 fold. For the same molecule, in experiment [4], the “Antagonist Potency IC50: 50% reduction in myeloperoxidase secretion from human PMNs mediated by 100 nM C5a” value turned out to be 0.5 µM. This molecule yielded an IC50 in experiment [5] of 14 µM.

B2: MeFKPLWR (peptide)
peptide: [NMeF]KPLWR
notes: Linear; dCha replaced by Leu; also called 10; ID NO:10
As for B2, in experiment [4], the “Antagonist Potency IC50: 50% reduction in myeloperoxidase secretion from human PMNs mediated by 100 nM C5a” value was greater than 1000 µM. In experiment [5], this molecule gave an IC50 of 144 µM.

B3: AcF-[KKdChaWr] (peptide)
peptide: Ac-FKK[dCha]W[dR]
modifications: lactam 2-C
SMILES: CC(=O)N[C@@H](Cc1ccccc1)C(=O)N[C@H]1CCCCNC(=O)[C@@H](CCCNC(=N)N)NC(=O)[C@H](Cc2c[nH]c3ccccc23)NC(=O)[C@@H](CC2CCCCC2)NC(=O)[C@H](CCCCN)NC1=O
In experiment [1], B3 came in with an IC50: 50% inhibition in the ability of C5a (100 nM) to cause the release of MPO from PMNs of 13 µM and a pD2: 50% inhibition in the ability of C5a (100 nM) to cause the release of MPO from PMNs of 4.88. This molecule also registered a pD2 in experiment [2] of 3.94. In experiment [6], this molecule yielded an IC50 of 116 µM.

B4: AcKF-[OPdChaWr] (peptide)
peptide: KFXPXWR
modifications: N-acetyl-Lys at 1; ornithine (O) at 3; D-cyclohexylalanine (dCha) at 5; D-Arg at 7; cyclic over residues 3-7 (ornithine side chain to C-terminus)
notes: Cyclic
In turn, B4 showed an IC50 in experiment [7] of 11 µM. That is a double-digit micromolar value.

B5: AcF-[KMdChaWr] (peptide)
peptide: FKMXWR
modifications: N-acetyl-Phe at 1; D-cyclohexylalanine (dCha) at 4; D-Arg at 6; cyclic over residues 2-6 (Lys side chain to C-terminus)
For the molecule B5, the pD2 in experiment [2] came out at 4.81. Besides, the IC50 in experiment [6] was found to be 15 µM.

B6: human recombinant C5a (ligand, UniProt P01031 678-751, looked up)
chain: TLQKKIEEIAAKYKHSVVKKCCYDGACVNNDETCEQRAARISLGPRCIKAFTECCVVASQLRANISHKDMQLGR
modifications: tracer form: Hunter/Bolton labelled 125I (New England Nuclear); unlabelled competitor form: none stated
notes: mature
The molecule B6 displayed an IC50 in experiment [8] of 0.0008 µM.

B7: [FWPdChaWr] (peptide)
peptide: cyclo(FWP[dCha]W[dR])
SMILES: N=C(N)NCCC[C@H]1NC(=O)[C@H](Cc2c[nH]c3ccccc23)NC(=O)[C@@H](CC2CCCCC2)NC(=O)[C@@H]2CCCN2C(=O)[C@H](Cc2c[nH]c3ccccc23)NC(=O)[C@H](Cc2ccccc2)NC1=O
In the case of B7, the pD2 in experiment [2] was determined as 4.37. The molecule further displayed an IC50 in experiment [6] of 43 µM.

B8: MeFKP(dCha)WR (peptide)
peptide: [NMeF]KP[dCha]WR
notes: Linear; 7 with the chirality of Arg changed; also called ID NO:9
In the case of B8, the IC50 in experiment [5] is 11 µM.
